# Laboratory results as given in patent publication US10766960 (dated 2020).
# T1: FcgRIa (human, UniProt P12314)
# T1 chain: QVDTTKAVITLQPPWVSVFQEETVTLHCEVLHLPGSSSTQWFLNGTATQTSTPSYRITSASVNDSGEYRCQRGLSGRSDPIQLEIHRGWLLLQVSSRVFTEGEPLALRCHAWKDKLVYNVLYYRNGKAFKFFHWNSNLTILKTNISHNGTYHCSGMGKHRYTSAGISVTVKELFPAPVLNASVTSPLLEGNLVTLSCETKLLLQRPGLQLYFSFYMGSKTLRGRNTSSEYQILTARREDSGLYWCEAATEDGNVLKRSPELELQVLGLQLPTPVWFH
# T2: FcgRIIa R (human, UniProt P12318)
# T2 chain: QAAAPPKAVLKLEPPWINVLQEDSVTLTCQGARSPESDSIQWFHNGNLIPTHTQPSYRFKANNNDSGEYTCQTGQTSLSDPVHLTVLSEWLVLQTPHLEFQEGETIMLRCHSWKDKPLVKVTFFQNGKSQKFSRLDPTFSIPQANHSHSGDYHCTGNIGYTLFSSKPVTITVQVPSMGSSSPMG
# T3: FcgRIIb (human, UniProt P31994)
# T3 chain: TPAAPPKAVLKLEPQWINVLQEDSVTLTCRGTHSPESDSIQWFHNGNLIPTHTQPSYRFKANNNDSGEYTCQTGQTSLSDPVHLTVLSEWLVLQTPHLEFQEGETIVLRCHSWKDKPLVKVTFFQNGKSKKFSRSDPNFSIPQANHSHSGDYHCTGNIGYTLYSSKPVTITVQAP
# T4: FcgRIIa H (human, UniProt P12318)
# T4 chain: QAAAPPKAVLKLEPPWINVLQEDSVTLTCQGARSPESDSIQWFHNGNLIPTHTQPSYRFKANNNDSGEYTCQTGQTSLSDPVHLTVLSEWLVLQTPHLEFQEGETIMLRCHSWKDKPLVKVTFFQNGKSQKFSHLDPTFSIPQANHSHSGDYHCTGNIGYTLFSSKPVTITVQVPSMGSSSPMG
# Legend:
# Assay in all cases: SPR
# FcgRIIIa V = FcgRIIIa V (human, UniProt P08637)
# FcgRIa = target: T1, FcgRIa
# FcgRIIa R = target: T2, FcgRIIa R
# FcgRIIIa F = FcgRIIIa F (human, UniProt P08637)
# FcgRIIb = target: T3, FcgRIIb
# FcgRIIa H = target: T4, FcgRIIa H
# FcgRIIIa F, sequence (P08637 17-208): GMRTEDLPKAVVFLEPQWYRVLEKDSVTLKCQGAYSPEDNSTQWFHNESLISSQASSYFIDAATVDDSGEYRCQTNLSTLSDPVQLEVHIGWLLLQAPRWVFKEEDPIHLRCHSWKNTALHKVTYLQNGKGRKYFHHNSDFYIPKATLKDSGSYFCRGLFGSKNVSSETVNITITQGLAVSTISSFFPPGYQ
# FcgRIIIa V, sequence (P08637 17-208 F176V): as the sequence (P08637 17-208) above, with F160V counted along it
Binder,Kd (FcgRIIIa V) [nM],Kd (FcgRIa) [nM],Kd (FcgRIIa R) [nM],Kd (FcgRIIIa F) [nM],Kd (FcgRIIb) [nM],Kd (FcgRIIa H) [nM]
GpH7-Kn045/GpH7-Hl048/GpL16-k0 (antibody) chain 1: QVQLVQSGAEVKKPGASVTVSCKASGYTFTDYEMHWIRQPPGEGLEWIGAIDPKTGDTAYSESFQDRVTLTADKSTSTAYMELSSLTSEDTAVYYCTRFYSYTYWGQGTLVTVSSASTKGPSVFPLAPSSKSTSGGTAALGCLVKDYFPEPVTVSWNSGALTSGVHTFPAVLQSSGLYSLSSVVTVPSSSLGTQTYICNVNHKPSNTKVDKKVEPKSCDKTHTCPPCPAPEYYAGPSVFLFPPKPKDTLMISRTPEVTCVVVDVSDEDPEVKFNWYVDGVEVHNAKTKPREEQYNATYRVVSVLTVLHQDWLNGKEYKCKVSNKALPAPIEKTISKAKGQPREPQVCTLPPSRDELTKNQVSLWCLVKGFYPSDIAVEWESNGQPENNYKTTPPVLDSDGSFFLYSKLTVDKSRWQQGNVFSCSVMHEALHNHYTQKSLSLSP chain 2: QVQLVQSGAEVKKPGASVTVSCKASGYTFTDYEMHWIRQPPGEGLEWIGAIDPKTGDTAYSESFQDRVTLTADKSTSTAYMELSSLTSEDTAVYYCTRFYSYTYWGQGTLVTVSSASTKGPSVFPLAPSSKSTSGGTAALGCLVKDYFPEPVTVSWNSGALTSGVHTFPAVLQSSGLYSLSSVVTVPSSSLGTQTYICNVNHKPSNTKVDKKVEPKSCDKTHTCPPCPAPELLAGPDVFLFPPKPKDTLMISRTPEVTCVVVDVSHEDPEVKFNWYVDGVEVHNAKTKPREEQYNSTYRVVSVLTVLHQDWLNGKEYKCKVSNKALPKPEEKTISKAKGQPREPQVYTLPPSRCELTKNQVSLSCAVKGFYPSDIAVEWESNGQPENNYKTTPPVLDSDGSFFLVSKLTVDKSRWQQGNVFSCSVMHEALHNHYTQKSLSLSP chain 3: DIVMTQSPLSLPVTPGEPASISCQASESLVHSNRNTYLHWYLQKPGQSPQLLIYKVSNRFSGVPDRFSGSGSGTDFTLKISRVEAEDVGVYYCSQNTHVPPTFGQGTKVEIERTVAAPSVFIFPPSDEQLKSGTASVVCLLNNFYPREAKVQWKVDNALQSGNSQESVTEQDSKDSTYSLSSTLTLSKADYEKHKVYACEVTHQGLSSPVTKSFNRGEC,1.3,0.019,4.8,3.7,110,11
GpH7-Kn056/GpH7-Hl055/GpL16-k0 (antibody) chain 1: QVQLVQSGAEVKKPGASVTVSCKASGYTFTDYEMHWIRQPPGEGLEWIGAIDPKTGDTAYSESFQDRVTLTADKSTSTAYMELSSLTSEDTAVYYCTRFYSYTYWGQGTLVTVSSASTKGPSVFPLAPSSKSTSGGTAALGCLVKDYFPEPVTVSWNSGALTSGVHTFPAVLQSSGLYSLSSVVTVPSSSLGTQTYICNVNHKPSNTKVDKKVEPKSCDKTHTCPPCPAPEYYAGPSVFLFPPKPKDTLMISRTPEVTCVVVDVSDEDPEVKFNWYVDGVEVHNAKTKPREELYNATYRVVSVLTVLHQDWLNGKEYKCKVSNKALPAPIEKTISKAKGQPREPQVCTLPPSRDELTKNQVSLWCLVKGFYPSDIAVEWESNGQPENNYKTTPPVLDSDGSFFLYSKLTVDKSRWQQGNVFSCSVMHEALHNHYTQKSLSLSP chain 2: QVQLVQSGAEVKKPGASVTVSCKASGYTFTDYEMHWIRQPPGEGLEWIGAIDPKTGDTAYSESFQDRVTLTADKSTSTAYMELSSLTSEDTAVYYCTRFYSYTYWGQGTLVTVSSASTKGPSVFPLAPSSKSTSGGTAALGCLVKDYFPEPVTVSWNSGALTSGVHTFPAVLQSSGLYSLSSVVTVPSSSLGTQTYICNVNHKPSNTKVDKKVEPKSCDKTHTCPPCPAPELLAGPDVFLFPPKPKDTLMISRTPEVTCVVVDVSHEDPEVKFNWYVDGVEVHNAKTKPREELYNSTYRVVSVLTVLHQDWLNGKEYKCKVSNKALPMPEEKTISKAKGQPREPQVYTLPPSRCELTKNQVSLSCAVKGFYPSDIAVEWESNGQPENNYKTTPPVLDSDGSFFLVSKLTVDKSRWQQGNVFSCSVMHEALHNHYTQKSLSLSP chain 3: DIVMTQSPLSLPVTPGEPASISCQASESLVHSNRNTYLHWYLQKPGQSPQLLIYKVSNRFSGVPDRFSGSGSGTDFTLKISRVEAEDVGVYYCSQNTHVPPTFGQGTKVEIERTVAAPSVFIFPPSDEQLKSGTASVVCLLNNFYPREAKVQWKVDNALQSGNSQESVTEQDSKDSTYSLSSTLTLSKADYEKHKVYACEVTHQGLSSPVTKSFNRGEC,0.66,0.023,17,1.4,260,30
GpH7-Kn037/GpH7-Hl036/GpL16-k0 (antibody) chain 1: QVQLVQSGAEVKKPGASVTVSCKASGYTFTDYEMHWIRQPPGEGLEWIGAIDPKTGDTAYSESFQDRVTLTADKSTSTAYMELSSLTSEDTAVYYCTRFYSYTYWGQGTLVTVSSASTKGPSVFPLAPSSKSTSGGTAALGCLVKDYFPEPVTVSWNSGALTSGVHTFPAVLQSSGLYSLSSVVTVPSSSLGTQTYICNVNHKPSNTKVDKKVEPKSCDKTHTCPPCPAPELLAGPDVFLFPPKPKDTLMISRTPEVTCVVVDVSHEDPEVKFNWYVDGVEVHNAKTKPREEQYNSTYRVVSVLTVLHQDWLNGKEYKCKVSNKALPAPEEKTISKAKGQPREPQVCTLPPSRDELTKNQVSLWCLVKGFYPSDIAVEWESNGQPENNYKTTPPVLDSDGSFFLYSKLTVDKSRWQQGNVFSCSVMHEALHNHYTQKSLSLSP chain 2: QVQLVQSGAEVKKPGASVTVSCKASGYTFTDYEMHWIRQPPGEGLEWIGAIDPKTGDTAYSESFQDRVTLTADKSTSTAYMELSSLTSEDTAVYYCTRFYSYTYWGQGTLVTVSSASTKGPSVFPLAPSSKSTSGGTAALGCLVKDYFPEPVTVSWNSGALTSGVHTFPAVLQSSGLYSLSSVVTVPSSSLGTQTYICNVNHKPSNTKVDKKVEPKSCDKTHTCPPCPAPELLAGPDVFLFPPKPKDTLMISRTPEVTCVVVDVSHEDPEVKFNWYVDGVEVHNAKTKPREEQYNSTYRVVSVLTVLHQDWLNGKEYKCKVSNKALPAPEEKTISKAKGQPREPQVYTLPPSRCELTKNQVSLSCAVKGFYPSDIAVEWESNGQPENNYKTTPPVLDSDGSFFLVSKLTVDKSRWQQGNVFSCSVMHEALHNHYTQKSLSLSP chain 3: DIVMTQSPLSLPVTPGEPASISCQASESLVHSNRNTYLHWYLQKPGQSPQLLIYKVSNRFSGVPDRFSGSGSGTDFTLKISRVEAEDVGVYYCSQNTHVPPTFGQGTKVEIERTVAAPSVFIFPPSDEQLKSGTASVVCLLNNFYPREAKVQWKVDNALQSGNSQESVTEQDSKDSTYSLSSTLTLSKADYEKHKVYACEVTHQGLSSPVTKSFNRGEC,2.6,0.012,17,9.7,230,27
